Reference: PMC12347638, “Fungal Laccases with High and Medium Redox Potential: Is the T1 Center Potential a Key Characteristic of Catalytic Efficiency in Heterogeneous and Homogeneous Reactions?” (International Journal of Molecular Sciences, 2025)

What was measured:
purified protein [1] = substrate: CCn1c(=NN=c2sc3cc(S(=O)(=O)O)ccc3n2CC)sc2cc(S(=O)(=O)O)ccc21; assay: purified protein; assay type: biochemical, Antrodiella faginea; conditions: air-saturated 0.1 M Na-citrate-phosphate buffer, pH 5.5, 23 °C, O2 co-substrate, free enzyme
purified protein [2] = substrate: CCn1c(=NN=c2sc3cc(S(=O)(=O)O)ccc3n2CC)sc2cc(S(=O)(=O)O)ccc21; assay: purified protein; assay type: biochemical, Metuloidea murashkinskyi; conditions: air-saturated 0.1 M Na-citrate-phosphate buffer, pH 5.5, 23 °C, O2 co-substrate, free enzyme

Protein | Km (purified protein [1]) [µM] | kcat (purified protein [1]) [s⁻¹] | kcat/Km (purified protein [1]) [M⁻¹ s⁻¹] | Km (purified protein [2]) [µM] | kcat (purified protein [2]) [s⁻¹] | kcat/Km (purified protein [2]) [M⁻¹ s⁻¹]
AfL (LacA), Antrodiella faginea laccase (Antrodiella faginea) (protein, native secreted enzyme purified from culture liquid) AIGPVADLKIVNANIQPDGFTRPAVLAGGTFPGPLIKGNKGDNFQLNVIDELENEDMLKSTSIHWHGFFQHGTNWADGPAFVNQCPITTGHSFLYNFHVPDQAGTFWYHSHLSTQYCDGLRGPMVVYDPHDPLKQLYDVDDESTVMTLADWYHTLARQEPPGPVTPDSTLINGLGRAPGQTTPSELAVLTVKRGTRYRIRLINISCEPNYHYSIDNHDLTVIEADGVSTQSLTVSSLTIFAGQRYSFILNANQPVGNYWIRAQPNDAADVTFNGGINSAILRYEGAPVAEPNTTAGPDNTPLLEVNIRPFVFTPVPGQPHAGGADFVKNLLFSFNGTNFQVDNVSFVPPTVPILLQILSGAHTAQDLMPAGSIIPLPKNAVIEFSMPGGVVGGGHPIHLHGHNFWVIRSANSSVYNYNDPVIRDVVNIGTTGDNVTIRFETNNPGPWFLHCHIDWHLDLGFAVVMAEDIPDAAAANPVPAAWNELCPLYDALTPGNQ | 4.9 ± 0.4 | 32.7 ± 1.1 | 6.67e+06 | – | – | –
SmL (Lac2), Steccherinum murashkinskyi laccase (Metuloidea murashkinskyi) (protein, native secreted enzyme purified from culture liquid) AQIGPVTDLHITNANISPDGFSRPAVLAGGTFPGPTIAGNTGDNFQITVFNDLTDPSMLTDTSIHWHGLFQKGTNWADGPAFVTQCPIITGQSFDYNFNVPGQAGTFWYHSHLSTQYCDGLRGPFVVYDPNDPNASLYDVDDDTTIITLADWYHTLAQQEPIGAAITADATLINGLGRSFTNTTASPLSVITVQSGKRYRMRLVSISCDPNYLFSIDGHDMTIIEVDGVNSQQLTVDQIQIFAAQRYSFVLNANQPVGNYWIRAQPNSGGQGFDGGINSAILRYEGATVEDPTTTAPTTFSNPLVETDLHPLADLGVPGQPFRGGADDPLVLNLAFANGRFSIDGVSFVPPTVPVLLQILSGAQNAQDLLPAGSVISLPSNSVIEVALPAGAAGGPHPFHLHGHNFAVVQSANNATPNYVNPIWRDTVSIGGTGDNVTIRFTTNNPGPWFLHCHIDWHLEAGFAIVFAEDIPDTASANPVPQAWSDLCPAYDQAHNISTATRQDFQILCICGILHVNFRQEERCGIS | – | – | – | 71.7 ± 2.9 | 33.3 ± 1.4 | 460000
